Numbering of substitutions follows the chain as printed.
B1: Sis1-WT (natural protein)
chain: MVKETKLYDLLGVSPSANEQELKKGYRKAALKYHPDKPTGDTEKFKEISEAFEILNDPQKREIYDQYGLEAARSGGPSFGPGGPGGAGGAGGFPGGAGGFSGGHAFSNEDAFNIFSQFFGGSSPFGGADDSGFSFSSYPSGGGAGMGGMPGGMGGMHGGMGGMPGGFRSASSSPTYPEEETVQVNLPVSLEDLFVGKKKSFKIGRKGPHGASEKTQIDIQLKPGWKAGTKITYKNQGDYNPQTGRRKTLQFVIQEKSHPNFKRDGDDLIYTLPLSFKESLLGFSKTIQTIDGRTLPLSRVQPVQPSQTSTYPGQGMPTPKNPSQRGNLIVKYKVDYPISLNDAQKRAIDENF
B2: Sis1-[change] (natural protein)
chain: B1 chain with N56L
B3: Sis1-[change] (natural protein)
chain: B1 chain with E53A
B4: Sis1-[change] (natural protein)
chain: B1 chain with S49V
B5: Sis1-[change] (natural protein)
chain: B1 chain with E53K

Assays:
Ssa1-WT = Ssa1-WT (yeast, UniProt P10591 1-642); experiment: ELISA
[1] = target: firefly luciferase (denatured) (firefly, UniProt P08659 1-550 = luciferase); experiment: ELISA
firefly luciferase (denatured), sequence (P08659 whole entry): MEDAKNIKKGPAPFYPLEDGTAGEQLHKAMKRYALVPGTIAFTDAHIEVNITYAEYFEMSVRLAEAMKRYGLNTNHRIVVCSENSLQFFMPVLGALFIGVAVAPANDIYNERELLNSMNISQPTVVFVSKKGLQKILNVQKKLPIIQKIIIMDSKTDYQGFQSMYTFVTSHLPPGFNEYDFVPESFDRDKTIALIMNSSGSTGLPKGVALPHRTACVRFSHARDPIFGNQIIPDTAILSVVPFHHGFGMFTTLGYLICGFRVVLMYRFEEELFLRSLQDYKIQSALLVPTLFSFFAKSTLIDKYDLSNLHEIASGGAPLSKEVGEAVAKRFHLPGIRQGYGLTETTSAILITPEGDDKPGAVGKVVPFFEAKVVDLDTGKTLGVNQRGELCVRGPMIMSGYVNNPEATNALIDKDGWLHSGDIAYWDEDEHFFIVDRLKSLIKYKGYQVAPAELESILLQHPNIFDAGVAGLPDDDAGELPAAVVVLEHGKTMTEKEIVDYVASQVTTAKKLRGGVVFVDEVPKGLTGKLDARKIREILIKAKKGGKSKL

Ssa1-WT, sequence (P10591 whole entry): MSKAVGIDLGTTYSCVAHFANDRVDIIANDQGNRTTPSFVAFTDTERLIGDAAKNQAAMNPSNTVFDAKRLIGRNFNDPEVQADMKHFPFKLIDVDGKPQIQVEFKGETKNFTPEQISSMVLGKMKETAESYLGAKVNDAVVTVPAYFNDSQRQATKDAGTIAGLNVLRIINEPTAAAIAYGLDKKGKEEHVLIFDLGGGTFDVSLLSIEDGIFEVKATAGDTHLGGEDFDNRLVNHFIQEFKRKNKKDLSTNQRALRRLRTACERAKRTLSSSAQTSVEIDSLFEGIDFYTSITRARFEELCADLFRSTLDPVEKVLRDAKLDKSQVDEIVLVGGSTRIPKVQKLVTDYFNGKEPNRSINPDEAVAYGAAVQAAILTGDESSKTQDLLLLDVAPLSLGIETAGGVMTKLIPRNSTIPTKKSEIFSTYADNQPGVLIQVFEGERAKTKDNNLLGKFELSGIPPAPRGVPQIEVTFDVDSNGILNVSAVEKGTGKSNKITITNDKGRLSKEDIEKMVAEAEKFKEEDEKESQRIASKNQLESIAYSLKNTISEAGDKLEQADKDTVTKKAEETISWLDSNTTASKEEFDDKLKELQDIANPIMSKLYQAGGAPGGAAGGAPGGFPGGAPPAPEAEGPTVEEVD

Row | Binder | binding result (Ssa1-WT) | binding result [1]
1 | B1 | binds | binds
2 | B2 | binds | binds
3 | B3 | binds | binds
4 | B4 | binds | binds
5 | B5 | binds | binds

Source: article doi:10.1101/2025.05.02.651952 (bioRxiv, 2025)
